target: human IL-6 (human, UniProt P05231 30-212); experiment: SPR (Biacore), supernatant antibody on Protein A chip, IL-6 flowed, 37 C
Procedure: Antibodies were captured on a Protein A chip (GE) by injecting 1:20 cell supernatant dilutions at 10 μL/min for 60 seconds. […] The sensor chip was regenerated by a 60 seconds injection of 10 mM Glycine pH 1.7 at the flow rate of 50 μL/min. […] For this setup, 1 μg/mL of purified antibody was injected over a Protein A chip at 10 μL/min for 25 seconds. […] The sensor chip was regenerated by a 60 seconds injection of 10 mM Glycine pH 1.7 at flow rate of 50 μL/min. Data analysis for supernatant and purified samples were performed using BIAevaluation software (GE). All sensorgrams were double reference subtracted and fit using a 1:1 Langmuir binding model.

human IL-6, sequence (P05231 30-212 limits assumed): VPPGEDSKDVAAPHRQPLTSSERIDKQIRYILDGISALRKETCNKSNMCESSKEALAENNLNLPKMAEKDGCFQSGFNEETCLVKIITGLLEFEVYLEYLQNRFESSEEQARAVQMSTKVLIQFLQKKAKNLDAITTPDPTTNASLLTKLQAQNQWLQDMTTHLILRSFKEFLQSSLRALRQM

Kd | koff | kon | Binder
0.288 nM | 0.000446 s⁻¹ | 1.55e+06 M⁻¹ s⁻¹ | anti-IL-6 antibody, heavy chain T63I, G66D / light chain M32L, M50D, N52S, M88Q (antibody, human IgG1, V domains shown, Human IgG1) VH: EVQLVESGGGLVQPGGSLRLSCAASGFTFSPFAMSWVRQAPGKGLEWVAKISPGGSWTYYSDIVTDRFTFSLDTSKSTAYLQMNSLRAEDTAVYYCARQLWGYYALDIWGQGTLVTVSS VL: DIQLTQSPSSLSASVGDRVTITCSASISVSYLYWYQQKPGKAPKLLIYDDSSLASGVPSRFSGSGSGTDFTLTISSLQPEDFATYYCQQWSGYPYTFGQGTKVEIK
0.273 nM | 0.000526 s⁻¹ | 1.92e+06 M⁻¹ s⁻¹ | anti-IL-6 antibody, heavy chain T63R, G66D / light chain M32L, M50D, N52S, M88Q (antibody, human IgG1, V domains shown, Human IgG1) VH: EVQLVESGGGLVQPGGSLRLSCAASGFTFSPFAMSWVRQAPGKGLEWVAKISPGGSWTYYSDRVTDRFTFSLDTSKSTAYLQMNSLRAEDTAVYYCARQLWGYYALDIWGQGTLVTVSS VL: DIQLTQSPSSLSASVGDRVTITCSASISVSYLYWYQQKPGKAPKLLIYDDSSLASGVPSRFSGSGSGTDFTLTISSLQPEDFATYYCQQWSGYPYTFGQGTKVEIK
0.274 nM | 0.00043 s⁻¹ | 1.57e+06 M⁻¹ s⁻¹ | anti-IL-6 antibody, heavy chain T63V, G66D / light chain M32L, M50D, N52S, M88Q (antibody, human IgG1, V domains shown, Human IgG1) VH: EVQLVESGGGLVQPGGSLRLSCAASGFTFSPFAMSWVRQAPGKGLEWVAKISPGGSWTYYSDVVTDRFTFSLDTSKSTAYLQMNSLRAEDTAVYYCARQLWGYYALDIWGQGTLVTVSS VL: DIQLTQSPSSLSASVGDRVTITCSASISVSYLYWYQQKPGKAPKLLIYDDSSLASGVPSRFSGSGSGTDFTLTISSLQPEDFATYYCQQWSGYPYTFGQGTKVEIK
0.278 nM | 0.000499 s⁻¹ | 1.8e+06 M⁻¹ s⁻¹ | anti-IL-6 antibody, heavy chain T63S, G66D / light chain M32L, M50D, N52S, M88Q (antibody, human IgG1, V domains shown, Human IgG1) VH: EVQLVESGGGLVQPGGSLRLSCAASGFTFSPFAMSWVRQAPGKGLEWVAKISPGGSWTYYSDSVTDRFTFSLDTSKSTAYLQMNSLRAEDTAVYYCARQLWGYYALDIWGQGTLVTVSS VL: DIQLTQSPSSLSASVGDRVTITCSASISVSYLYWYQQKPGKAPKLLIYDDSSLASGVPSRFSGSGSGTDFTLTISSLQPEDFATYYCQQWSGYPYTFGQGTKVEIK
0.286 nM | 0.000449 s⁻¹ | 1.57e+06 M⁻¹ s⁻¹ | anti-IL-6 antibody, heavy chain T63W, G66D / light chain M32L, M50D, N52S, M88Q (antibody, human IgG1, V domains shown, Human IgG1) VH: EVQLVESGGGLVQPGGSLRLSCAASGFTFSPFAMSWVRQAPGKGLEWVAKISPGGSWTYYSDWVTDRFTFSLDTSKSTAYLQMNSLRAEDTAVYYCARQLWGYYALDIWGQGTLVTVSS VL: DIQLTQSPSSLSASVGDRVTITCSASISVSYLYWYQQKPGKAPKLLIYDDSSLASGVPSRFSGSGSGTDFTLTISSLQPEDFATYYCQQWSGYPYTFGQGTKVEIK
0.279 nM | 0.000474 s⁻¹ | 1.7e+06 M⁻¹ s⁻¹ | anti-IL-6 antibody, heavy chain T65E, G66D / light chain M32L, M50D, N52S, M88Q (antibody, human IgG1, V domains shown, Human IgG1) VH: EVQLVESGGGLVQPGGSLRLSCAASGFTFSPFAMSWVRQAPGKGLEWVAKISPGGSWTYYSDTVEDRFTFSLDTSKSTAYLQMNSLRAEDTAVYYCARQLWGYYALDIWGQGTLVTVSS VL: DIQLTQSPSSLSASVGDRVTITCSASISVSYLYWYQQKPGKAPKLLIYDDSSLASGVPSRFSGSGSGTDFTLTISSLQPEDFATYYCQQWSGYPYTFGQGTKVEIK
0.465 nM | 0.00048 s⁻¹ | 1.03e+06 M⁻¹ s⁻¹ | anti-IL-6 antibody, heavy chain T65D, G66D / light chain M32L, M50D, N52S, M88Q (antibody, human IgG1, V domains shown, Human IgG1) VH: EVQLVESGGGLVQPGGSLRLSCAASGFTFSPFAMSWVRQAPGKGLEWVAKISPGGSWTYYSDTVDDRFTFSLDTSKSTAYLQMNSLRAEDTAVYYCARQLWGYYALDIWGQGTLVTVSS VL: DIQLTQSPSSLSASVGDRVTITCSASISVSYLYWYQQKPGKAPKLLIYDDSSLASGVPSRFSGSGSGTDFTLTISSLQPEDFATYYCQQWSGYPYTFGQGTKVEIK
0.291 nM | 0.000391 s⁻¹ | 1.34e+06 M⁻¹ s⁻¹ | anti-IL-6 antibody, heavy chain T65F, G66D / light chain M32L, M50D, N52S, M88Q (antibody, human IgG1, V domains shown, Human IgG1) VH: EVQLVESGGGLVQPGGSLRLSCAASGFTFSPFAMSWVRQAPGKGLEWVAKISPGGSWTYYSDTVFDRFTFSLDTSKSTAYLQMNSLRAEDTAVYYCARQLWGYYALDIWGQGTLVTVSS VL: DIQLTQSPSSLSASVGDRVTITCSASISVSYLYWYQQKPGKAPKLLIYDDSSLASGVPSRFSGSGSGTDFTLTISSLQPEDFATYYCQQWSGYPYTFGQGTKVEIK
0.246 nM | 0.000419 s⁻¹ | 1.7e+06 M⁻¹ s⁻¹ | anti-IL-6 antibody, heavy chain T63P, G66D / light chain M32L, M50D, N52S, M88Q (antibody, human IgG1, V domains shown, Human IgG1) VH: EVQLVESGGGLVQPGGSLRLSCAASGFTFSPFAMSWVRQAPGKGLEWVAKISPGGSWTYYSDPVTDRFTFSLDTSKSTAYLQMNSLRAEDTAVYYCARQLWGYYALDIWGQGTLVTVSS VL: DIQLTQSPSSLSASVGDRVTITCSASISVSYLYWYQQKPGKAPKLLIYDDSSLASGVPSRFSGSGSGTDFTLTISSLQPEDFATYYCQQWSGYPYTFGQGTKVEIK
0.311 nM | 0.000477 s⁻¹ | 1.53e+06 M⁻¹ s⁻¹ | anti-IL-6 antibody, heavy chain T65G, G66D / light chain M32L, M50D, N52S, M88Q (antibody, human IgG1, V domains shown, Human IgG1) VH: EVQLVESGGGLVQPGGSLRLSCAASGFTFSPFAMSWVRQAPGKGLEWVAKISPGGSWTYYSDTVGDRFTFSLDTSKSTAYLQMNSLRAEDTAVYYCARQLWGYYALDIWGQGTLVTVSS VL: DIQLTQSPSSLSASVGDRVTITCSASISVSYLYWYQQKPGKAPKLLIYDDSSLASGVPSRFSGSGSGTDFTLTISSLQPEDFATYYCQQWSGYPYTFGQGTKVEIK
0.601 nM | 0.00108 s⁻¹ | 1.79e+06 M⁻¹ s⁻¹ | anti-IL-6 antibody, heavy chain T65P, G66D / light chain M32L, M50D, N52S, M88Q (antibody, human IgG1, V domains shown, Human IgG1) VH: EVQLVESGGGLVQPGGSLRLSCAASGFTFSPFAMSWVRQAPGKGLEWVAKISPGGSWTYYSDTVPDRFTFSLDTSKSTAYLQMNSLRAEDTAVYYCARQLWGYYALDIWGQGTLVTVSS VL: DIQLTQSPSSLSASVGDRVTITCSASISVSYLYWYQQKPGKAPKLLIYDDSSLASGVPSRFSGSGSGTDFTLTISSLQPEDFATYYCQQWSGYPYTFGQGTKVEIK
0.241 nM | 0.000459 s⁻¹ | 1.91e+06 M⁻¹ s⁻¹ | anti-IL-6 antibody, heavy chain T63Y, G66D / light chain M32L, M50D, N52S, M88Q (antibody, human IgG1, V domains shown, Human IgG1) VH: EVQLVESGGGLVQPGGSLRLSCAASGFTFSPFAMSWVRQAPGKGLEWVAKISPGGSWTYYSDYVTDRFTFSLDTSKSTAYLQMNSLRAEDTAVYYCARQLWGYYALDIWGQGTLVTVSS VL: DIQLTQSPSSLSASVGDRVTITCSASISVSYLYWYQQKPGKAPKLLIYDDSSLASGVPSRFSGSGSGTDFTLTISSLQPEDFATYYCQQWSGYPYTFGQGTKVEIK
0.283 nM | 0.000454 s⁻¹ | 1.6e+06 M⁻¹ s⁻¹ | anti-IL-6 antibody, heavy chain T63L, G66D / light chain M32L, M50D, N52S, M88Q (antibody, human IgG1, V domains shown, Human IgG1) VH: EVQLVESGGGLVQPGGSLRLSCAASGFTFSPFAMSWVRQAPGKGLEWVAKISPGGSWTYYSDLVTDRFTFSLDTSKSTAYLQMNSLRAEDTAVYYCARQLWGYYALDIWGQGTLVTVSS VL: DIQLTQSPSSLSASVGDRVTITCSASISVSYLYWYQQKPGKAPKLLIYDDSSLASGVPSRFSGSGSGTDFTLTISSLQPEDFATYYCQQWSGYPYTFGQGTKVEIK
0.293 nM | 0.000446 s⁻¹ | 1.53e+06 M⁻¹ s⁻¹ | anti-IL-6 antibody, heavy chain T65L, G66D / light chain M32L, M50D, N52S, M88Q (antibody, human IgG1, V domains shown, Human IgG1) VH: EVQLVESGGGLVQPGGSLRLSCAASGFTFSPFAMSWVRQAPGKGLEWVAKISPGGSWTYYSDTVLDRFTFSLDTSKSTAYLQMNSLRAEDTAVYYCARQLWGYYALDIWGQGTLVTVSS VL: DIQLTQSPSSLSASVGDRVTITCSASISVSYLYWYQQKPGKAPKLLIYDDSSLASGVPSRFSGSGSGTDFTLTISSLQPEDFATYYCQQWSGYPYTFGQGTKVEIK
0.327 nM | 0.000532 s⁻¹ | 1.63e+06 M⁻¹ s⁻¹ | anti-IL-6 antibody, heavy chain T65R, G66D / light chain M32L, M50D, N52S, M88Q (antibody, human IgG1, V domains shown, Human IgG1) VH: EVQLVESGGGLVQPGGSLRLSCAASGFTFSPFAMSWVRQAPGKGLEWVAKISPGGSWTYYSDTVRDRFTFSLDTSKSTAYLQMNSLRAEDTAVYYCARQLWGYYALDIWGQGTLVTVSS VL: DIQLTQSPSSLSASVGDRVTITCSASISVSYLYWYQQKPGKAPKLLIYDDSSLASGVPSRFSGSGSGTDFTLTISSLQPEDFATYYCQQWSGYPYTFGQGTKVEIK
0.239 nM | 0.000542 s⁻¹ | 2.27e+06 M⁻¹ s⁻¹ | anti-IL-6 antibody, heavy chain T65A, G66D / light chain M32L, M50D, N52S, M88Q (antibody, human IgG1, V domains shown, Human IgG1) VH: EVQLVESGGGLVQPGGSLRLSCAASGFTFSPFAMSWVRQAPGKGLEWVAKISPGGSWTYYSDTVADRFTFSLDTSKSTAYLQMNSLRAEDTAVYYCARQLWGYYALDIWGQGTLVTVSS VL: DIQLTQSPSSLSASVGDRVTITCSASISVSYLYWYQQKPGKAPKLLIYDDSSLASGVPSRFSGSGSGTDFTLTISSLQPEDFATYYCQQWSGYPYTFGQGTKVEIK
0.31 nM | 0.000441 s⁻¹ | 1.42e+06 M⁻¹ s⁻¹ | anti-IL-6 antibody, heavy chain T65S, G66D / light chain M32L, M50D, N52S, M88Q (antibody, human IgG1, V domains shown, Human IgG1) VH: EVQLVESGGGLVQPGGSLRLSCAASGFTFSPFAMSWVRQAPGKGLEWVAKISPGGSWTYYSDTVSDRFTFSLDTSKSTAYLQMNSLRAEDTAVYYCARQLWGYYALDIWGQGTLVTVSS VL: DIQLTQSPSSLSASVGDRVTITCSASISVSYLYWYQQKPGKAPKLLIYDDSSLASGVPSRFSGSGSGTDFTLTISSLQPEDFATYYCQQWSGYPYTFGQGTKVEIK
0.356 nM | 0.000579 s⁻¹ | 1.63e+06 M⁻¹ s⁻¹ | anti-IL-6 antibody, heavy chain T65K, G66D / light chain M32L, M50D, N52S, M88Q (antibody, human IgG1, V domains shown, Human IgG1) VH: EVQLVESGGGLVQPGGSLRLSCAASGFTFSPFAMSWVRQAPGKGLEWVAKISPGGSWTYYSDTVKDRFTFSLDTSKSTAYLQMNSLRAEDTAVYYCARQLWGYYALDIWGQGTLVTVSS VL: DIQLTQSPSSLSASVGDRVTITCSASISVSYLYWYQQKPGKAPKLLIYDDSSLASGVPSRFSGSGSGTDFTLTISSLQPEDFATYYCQQWSGYPYTFGQGTKVEIK
0.297 nM | 0.000423 s⁻¹ | 1.43e+06 M⁻¹ s⁻¹ | anti-IL-6 antibody, heavy chain T65H, G66D / light chain M32L, M50D, N52S, M88Q (antibody, human IgG1, V domains shown, Human IgG1) VH: EVQLVESGGGLVQPGGSLRLSCAASGFTFSPFAMSWVRQAPGKGLEWVAKISPGGSWTYYSDTVHDRFTFSLDTSKSTAYLQMNSLRAEDTAVYYCARQLWGYYALDIWGQGTLVTVSS VL: DIQLTQSPSSLSASVGDRVTITCSASISVSYLYWYQQKPGKAPKLLIYDDSSLASGVPSRFSGSGSGTDFTLTISSLQPEDFATYYCQQWSGYPYTFGQGTKVEIK

Source: patent publication US20240209076A1 (KODIAK SCIENCES, published 2024)
